Test results taken from EP4477673A1, “IMMUNOCONJUGATE AND USE THEREOF” (priority 2022, dated 2023).

Assays:
human PD-1 [1] = biological target: T1, human PD-1 (human, UniProt Q15116 25-288); test: flow cytometry on Jurkat cells overexpressing human PD-1
T1 construct: One molecule for human PD-1 on Jurkat cells (Promega), on M07e-hPD-1 cells and on T cells of the MLR; also called PD-1 expressed on the cell membrane; Jurkat cells overexpressing human PD-1 (J1250, Promega)

human PD-1 [2] = biological target: T1, human PD-1; test: cell-based or functional assay
[3] = biological target: T2, Human PD-1 protein (His Tag) (human, UniProt Q15116 25-167); test: ELISA, plate coated with human PD-1 (his tag), anti-human IgG4 Fc-HRP
T2 construct: also called PD1-H5221; PD-1 antigen; not shown: His tag

IL-2Rβ/γ on M07e cells [4] = biological target: T3, IL-2Rβ/γ on M07e cells (human, UniProt P14784 27-551; P31785 23-369); test: cell-based or functional assay
T3 sequence (looked up) 1: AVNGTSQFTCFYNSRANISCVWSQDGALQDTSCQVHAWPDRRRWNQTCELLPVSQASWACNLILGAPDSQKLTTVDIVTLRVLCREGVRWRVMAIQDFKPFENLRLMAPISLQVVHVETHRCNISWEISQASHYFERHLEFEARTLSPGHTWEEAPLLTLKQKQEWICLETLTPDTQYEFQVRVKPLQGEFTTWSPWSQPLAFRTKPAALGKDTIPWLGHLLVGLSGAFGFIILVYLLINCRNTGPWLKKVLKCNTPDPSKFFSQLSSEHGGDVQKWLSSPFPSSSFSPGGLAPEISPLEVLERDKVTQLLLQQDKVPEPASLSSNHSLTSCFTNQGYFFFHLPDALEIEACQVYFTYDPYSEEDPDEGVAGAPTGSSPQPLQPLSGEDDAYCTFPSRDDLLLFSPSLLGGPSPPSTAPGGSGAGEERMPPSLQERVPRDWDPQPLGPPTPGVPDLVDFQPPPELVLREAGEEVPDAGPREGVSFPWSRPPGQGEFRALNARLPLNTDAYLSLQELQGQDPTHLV
T3 sequence (looked up) 2: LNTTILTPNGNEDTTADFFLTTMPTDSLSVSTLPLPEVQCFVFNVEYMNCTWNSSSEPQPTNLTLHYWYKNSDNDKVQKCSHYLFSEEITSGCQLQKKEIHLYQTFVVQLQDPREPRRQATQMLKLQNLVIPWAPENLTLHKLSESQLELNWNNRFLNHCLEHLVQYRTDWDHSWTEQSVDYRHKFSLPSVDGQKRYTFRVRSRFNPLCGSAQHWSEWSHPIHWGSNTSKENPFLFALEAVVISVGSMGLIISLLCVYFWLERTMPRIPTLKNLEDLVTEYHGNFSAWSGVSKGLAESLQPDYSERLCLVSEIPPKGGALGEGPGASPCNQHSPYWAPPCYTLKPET

IL-2Rβ/γ on M07e cells [5] = biological target: T3, IL-2Rβ/γ on M07e cells; test: cell-based or functional assay; remark: listed apart in the source
IL-2Rβ/γ on M07e cells [6] = biological target: T3, IL-2Rβ/γ on M07e cells; test: cell-based or functional assay; remark: listed apart in the source

T1 sequence (Q15116 25-288 limits assumed): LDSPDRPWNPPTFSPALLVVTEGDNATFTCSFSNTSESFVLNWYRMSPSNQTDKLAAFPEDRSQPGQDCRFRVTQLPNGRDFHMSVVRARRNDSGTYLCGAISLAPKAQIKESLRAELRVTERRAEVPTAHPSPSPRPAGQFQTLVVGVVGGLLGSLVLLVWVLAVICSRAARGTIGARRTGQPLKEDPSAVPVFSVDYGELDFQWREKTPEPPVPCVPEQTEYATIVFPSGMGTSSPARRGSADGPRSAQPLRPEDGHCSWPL
T2 sequence (Q15116 25-167): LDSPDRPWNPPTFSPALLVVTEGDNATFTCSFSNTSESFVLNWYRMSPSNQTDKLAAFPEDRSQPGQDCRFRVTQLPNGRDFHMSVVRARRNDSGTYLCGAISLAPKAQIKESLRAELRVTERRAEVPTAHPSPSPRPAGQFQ

B1: A6_hIgG4 (antibody, V domains shown)
VH: EVQLVESGGGLVQAGGSLRLSCAVSGRTFSSAAMGWFRQAPGKEREFVAAISWSFGSTYYADSVKGRFTISRDNAKNTVYLQMNSLKPEDTAVYYCAADPSIETMGGGWDYWGQGTQVTVSS
Human PD-1 [1]
  EC50: 1.09 nM
Human PD-1 [2]
  IC50, PD-1/PD-L1 NFAT reporter gene system: 1.35 nM
[3]
  EC50: 0.0861 nM

B2: PEGylated IL-2 mutant (PEG-IL-2v) (ligand)
chain: APASSSTKKTQLQLEHLLLDLQMILQGISNYKNPKLTRMLTAKFYMPKKATELKHLQCLEEELKPLEEVLQGAQSKNFHLRPRDLISNINVIVLELKGSETTFMCEYADETATIVEFLNRWITFAQSIISTLT
modifications: PEGylated (site not stated)
IL-2Rβ/γ on M07e cells [4]
  M07e-hPD-1 cell proliferation ratio (%) at 0.0001 nM: -2.2%
  M07e-hPD-1 cell proliferation ratio (%) at 0.001 nM: -2.1%
  M07e-hPD-1 cell proliferation ratio (%) at 0.01 nM: -2.6%
  M07e-hPD-1 cell proliferation ratio (%) at 0.1 nM: -2.2%
  M07e-hPD-1 cell proliferation ratio (%) at 1 nM: -0.6%
  M07e-hPD-1 cell proliferation ratio (%) at 10 nM: 24.4%
  M07e-hPD-1 cell proliferation ratio (%) at 100 nM: 76.7%
  M07e-hPD-1 cell proliferation ratio (%) at 1000 nM: 89.1%
IL-2Rβ/γ on M07e cells [5]
  M07e proliferation, EC50: 20.9 nM
  M07e proliferation, Maximal fluorescence value (Max Lum): 4.45e+06 Lum
  M07e-hPD1 proliferation, EC50: 13.3 nM
  M07e-hPD1 proliferation, Maximal fluorescence value (Max Lum): 7.94e+06 Lum
IL-2Rβ/γ on M07e cells [6]
  M07e cell proliferation activity (%) at 0.46 nM: 0.7%
  M07e cell proliferation activity (%) at 1.4 nM: 2.6%
  M07e cell proliferation activity (%) at 4.1 nM: 11.2%
  M07e cell proliferation activity (%) at 12 nM: 34.2%
  M07e cell proliferation activity (%) at 37 nM: 68.2%
  M07e cell proliferation activity (%) at 111 nM: 88.3%
  M07e cell proliferation activity (%) at 333 nM: 102%
  M07e cell proliferation activity (%) at 1000 nM: 89%
  M07e-hPD-1 cell proliferation activity (%) at 0.0001 nM: 1.9%
  M07e-hPD-1 cell proliferation activity (%) at 0.001 nM: 1.1%
  M07e-hPD-1 cell proliferation activity (%) at 0.01 nM: 0.5%
  M07e-hPD-1 cell proliferation activity (%) at 0.1 nM: 0.4%
  M07e-hPD-1 cell proliferation activity (%) at 1 nM: 3.3%
  M07e-hPD-1 cell proliferation activity (%) at 10 nM: 33.3%
  M07e-hPD-1 cell proliferation activity (%) at 100 nM: 104%
  M07e-hPD-1 cell proliferation activity (%) at 1000 nM: 100%
